Where a chain is given by its changes, count along the chain named. Numbers in names are those of the source. Entries after “also recorded” stand apart in the source; their conditions may differ. Where two headings read alike, the source gives them in different places.
B1: pAzFRS.1.t1: pAcFRS variant D158V, I159M, L162D, A167Y, R257G, SEQ ID NO: 11 (protein)
chain: MDEFEMIKRNTSEIISEEELREVLKKDEKSALIGFEPSGKIHLGHYLQIKKMIDLQNAGFDIIILLADLHAYLNQKGELDEIRKIGDYNKKVFEAMGLKAKYVYGSEFQLDKDYTLNVYRLALKTTLKRARRSMELIAREDENPKVAEVIYPIMQVNVMHYDGVDVYVGGMEQRKIHMLARELLPKKVVCIHNPVLTGLDGEGKMSSSKGNFIAVDDSPEEIRAKIKKAYCPAGVVEGNPIMMEIAKYFLEYPLTIKGPEKFGGDLTVNSYEELESLFKNKELHPMRLKNAVAEELIKILEPIRKRL
B2: pAcFRS.1.t1: pAcFRS variant A167D, R257G, SEQ ID NO: 5 (protein)
chain: MDEFEMIKRNTSEIISEEELREVLKKDEKSALIGFEPSGKIHLGHYLQIKKMIDLQNAGFDIIILLADLHAYLNQKGELDEIRKIGDYNKKVFEAMGLKAKYVYGSEFQLDKDYTLNVYRLALKTTLKRARRSMELIAREDENPKVAEVIYPIMQVNGCHYRGVDVDVGGMEQRKIHMLARELLPKKVVCIHNPVLTGLDGEGKMSSSKGNFIAVDDSPEEIRAKIKKAYCPAGVVEGNPIMEIAKYFLEYPLTIKGPEKFGGDLTVNSYEELESLFKNKELHPMRLKNAVAEELIKILEPIRKRL
B3: pAcFRS: progenitor M. jannaschii based p-acetyl-L-phenylalanine AARS, SEQ ID NO:1 (Young, et al., 2010) (protein, listed as Methanocaldococcus jannaschii)
chain: B2 chain with D167A, G257R
B4: pAcFRS.2.t1: pAcFRS variant L65V, A167D, R257G, SEQ ID NO: 8 (protein)
chain: B2 chain with L65V
B5: pAzFRS.2.t1: pAcFRS variant E107T, F108Y, Q109M, R257G, SEQ ID NO: 14 (protein)
chain: B2 chain with E107T, F108Y, Q109M, D167A

Legend:
GFP(3TAG) [1] = assay: nsAA library screening, GFP(3TAG) fluorescence in 384 well plates; format: cell-based, E. coli; details: GFP(3TAG) production in the presence of pAcF, pAzF and 236 other nsAAs
Protocol: Liquid cell cultures of strains harboring chromosomally integrated OTSs and GFP reporter plasmids were inoculated from frozen stocks and grown to confluence overnight. Cultures were then inoculated at 1:20 dilution in LBmin media supplemented with 30 μg/ml kanamycin. Strains were inoculated by addition of 1:20 confluent cell culture (grown overnight) and allowed to grow at 34° C. to an OD600 of 0.5-0.8 in a shaking plate incubator at 650 r.p.m (˜3 h). AARS expression was then induced by the addition of 0.2% arabinose, GFP expression was induced by the addition of 60 ng/ul anhydrotetracycline, and the appropriate nsAA was added to a concentration of 1 mM. Cells were incubated at 34° C. for an additional 16 h. Liquid cell cultures of strains harboring plasmid-based OTSs and GFP or ELP-GFP reporter plasmids were inoculated from frozen stocks and grown to confluence overnight. Cultures were then inoculated at 1:20 dilution in 2×YT media supplemented with 30 μg/ml kanamycin and 20 μg/ml chloramphenicol. […] Cells were allowed to grow at 34° C. to an OD600 of 0.5-0.8 in a shaking plate incubator at 650 r.p.m (˜3 h), reporter protein expression was then induced by the addition of 60 ng/ul anhydrotetracycline, and cells were incubated at 34° C. for an additional 16 h.
For 384 well plate-based assays, fluorescence and OD600 were directly measured following expression. For 96 well plate-based assays, cells were centrifuged at 4,000 g for 4 min. Supernatant medium was removed and cells were resuspended in PBS. This process was repeated twice with PBS. GFP fluorescence was measured on a Biotek spectrophotometric plate reader using excitation and emission wavelengths of 395 and 509 nm, respectively). Fluorescence signals were normalized by dividing the fluorescence counts by the OD600 reading. The nsAAs used in this study were purchased from Sigma-Aldrich (St. Louis, Mo.), Chemlmpex (Wood Dale, Ill.), and Bachem (Torrance, Calif.). Solutions of nsAAs (50 mM) were made in water or 50 mM NaOH; these stock solutions were diluted 50- or 100-fold (to 1 mM final concentration) into medium used for bacterial growth. […]

GFP(3TAG) [2] = format: cell-based, E. coli
[3] = ATP-PPi exchange assay (amino acid activation); format: biochemical; details: for Fold change: relative to progenitor pAcFRS
Protocol: A 25 μl ATP-PPi exchange reaction contained the following components: 100 mM HEPES-KOH (pH 7.5), 30 mM KCl, 10 mM MgCl2, 2 mM DTT, 2 mM KF, 2 mM NaPPi, 5 mM ATP, […], 2 μCi/μl of […] (PerkinElmer) and varied concentrations of amino acids (0.25, 0.5, 1.25, 2.5, 5, 10, and 20 mM, respectively). The reactions were incubated at 37° C. Time points were taken at 2 minutes, 5 minutes and 10 minutes by plotting 1 μl aliquots from the reaction immediately to the PEI-cellulose plates (Merck). For each reaction, 1 μl of blank reaction mixture containing no enzymes was set as background. The reaction mixtures were separated on the plates in 1 M urea and 1 M monopotassium phosphate. The plates were then scanned in a Molecular Dynamics Storm 860 phosphorimager (Amersham Biosciences). The ratio of ATP to PPi was determined to monitor reaction progress. The kinetic constants were derived from plotting initial velocity of a series of reactions that contained varied concentrations of amino acids. The data were analyzed by GraFit 5.0 (Erithacus Software).

[4] = chromosomally integrated AARS, pAzF

| Molecule | nsAA specificity (polyspecificity) (GFP(3TAG) [1]) | higher GFP(3TAG) production compared with the progenitor enzyme (GFP(3TAG) [2]; [4]) [fold] | Km ([3]; nsAA pAzF) [µM] | kcat ([3]; nsAA pAzF) | Fold change ([3]; nsAA pAzF) | higher GFP(3TAG) production compared with the progenitor enzyme (GFP(3TAG) [2]; chromosomally integrated AARS, pAcF) [fold] | Km ([3]; nsAA pAcF) [µM] | kcat ([3]; nsAA pAcF) | Fold change ([3]; nsAA pAcF) | decrease in the yield of GFP(3TAG) by genomic integration of the OTS (GFP(3TAG) [2]; RF1 deficient GRO, chromosomal versus plasmid OTS) [fold] | selectivity toward pAcF over pAzF (GFP(3TAG) [2]; GFP(3TAG) expression, chromosomally integrated AARS) | decrease in aminoacylation for pAzF compared with pAcF ([3]; in vitro biochemical analysis) [fold] |
| --- | --- | --- | --- | --- | --- | --- | --- | --- | --- | --- | --- | --- |
| B1 | specific for pAzF; also recorded: exceptional specificity toward pAzF with almost complete exclusion of any other nsAA | ~5.5 | 990 ± 130 | 4.79 ± 0.67 ×10^−2 s^−1 | 3.32 | – | – | – | – | – | – | – |
| B2 | polyspecifity for at least pAcF, pAzF, StyA, 4IF, 4BrF, 4ClF, 4MeF, 4Cf3F, MeY, 4NO2F, 4BuF, BuY, 2NaA, PheF | – | 1490 ± 110 | 3.65 ± 0.62 ×10^−2 s^−1 | 1.68 | ~17 | 1680 ± 780 | 6.12 ± 0.74 ×10^−2 s^−1 | 5.34 | – | – | – |
| B3 | – | – | 3040 ± 270 | 4.45 ± 0.13 ×10^−2 s^−1 | 1 | – | 7340 ± 1620 | 5.01 ± 0.48 ×10^−2 s^−1 | 1 | ~20 | – | – |
| B4 | polyspecifity for at least pAcF, pAzF, StyA, 4IF, 4BrF, 4ClF, 4MeF, 4Cf3F, MeY, 4NO2F, 4BuF, BuY, 2NaA, PheF | – | 6590 ± 1700 | 4.22 ± 0.45 ×10^−2 s^−1 | 0.44 | – | 2810 ± 890 | 5.43 ± 0.54 ×10^−2 s^−1 | 2.84 | – | increase in selectivity | 5 |
| B5 | polyspecific for at least pAcF, pAzF, StyA, 4IF, 4BrF, 4ClF, 4MeF, 4Cf3F, MeY, 4NO2F, 4BuF, BuY, 2NaA, PheF | ~25 | 1400 ± 350 | 4.14 ± 0.23 ×10^−2 s^−1 | 2.02 | – | – | – | – | – | – | – |

Reference: patent US10501734B2, “Compositions and methods of use thereof for making polypeptides with many instances of nonstandard amino acids” (Yale University, priority 2014, dated 2019)
